# Measured values published in US20170101476A1 (Novartis, published 2017).
# T1: Human CXCR2 (human, UniProt P25025 1-360)
# T1 sequence: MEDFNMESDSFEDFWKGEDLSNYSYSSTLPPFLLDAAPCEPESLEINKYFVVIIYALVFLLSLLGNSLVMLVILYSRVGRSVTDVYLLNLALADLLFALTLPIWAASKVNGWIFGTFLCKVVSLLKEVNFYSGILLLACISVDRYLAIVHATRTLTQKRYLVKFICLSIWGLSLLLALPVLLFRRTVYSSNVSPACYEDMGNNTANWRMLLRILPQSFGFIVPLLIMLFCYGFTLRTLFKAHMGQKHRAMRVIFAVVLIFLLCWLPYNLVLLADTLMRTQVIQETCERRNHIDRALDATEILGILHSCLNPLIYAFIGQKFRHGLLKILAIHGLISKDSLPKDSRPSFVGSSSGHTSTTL
# T2: Cynomolgus CXCR2 (cynomolgus, UniProt Q28519 3-353 (rhesus entry))
# T2 chain: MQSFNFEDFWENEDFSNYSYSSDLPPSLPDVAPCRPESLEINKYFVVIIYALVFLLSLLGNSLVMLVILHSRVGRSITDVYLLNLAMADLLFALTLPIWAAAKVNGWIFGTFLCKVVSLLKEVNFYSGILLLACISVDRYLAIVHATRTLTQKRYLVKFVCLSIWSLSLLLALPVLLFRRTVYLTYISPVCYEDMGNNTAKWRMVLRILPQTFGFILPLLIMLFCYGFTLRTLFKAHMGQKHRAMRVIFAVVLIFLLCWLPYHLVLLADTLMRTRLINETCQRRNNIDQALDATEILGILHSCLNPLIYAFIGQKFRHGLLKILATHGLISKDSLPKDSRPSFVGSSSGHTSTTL
# B1: CXCR20021 (bispecific antibody, not shown: small tags and cut ends)
# chain: EVQLVESGGGLVQAGESLRLSCAASGSTFDFKVMGWYRQPPGKQREGVAAIRLSGNMHYAESVKGRFTISKANAKNTVYLQMNSLRPEDTAVYYCKVNIRGQDYWGQGTQVTVSSGGGGSGGGGSGGGGSGGGGSGGGGSGGGGSGGGGSEVQLVESGGGLVQPGGSLRLSCVASGRIFSSNAMGWFRQAPGKEREFVAAITWRSGGSAYYADSAKGRFTISRDNAKNTVYLQMNSLKPEDTAVYYCAAGGSSWLSFPPDYWGQGTQVTVSS
# B2: CXCR20013 (bispecific antibody, not shown: small tags and cut ends)
# chain: EVQLVESGGELVQPGGSLRLSCAASGSILTINAMGWYRQAPGKQRELVVRRTRGGSTTYQDSVKGRFTISADIAKKTMYLQMNSLKPEDTAVYYCMLDDRGGVYWGQGTQVTVSSGGGGSGGGGSGGGGSGGGGSGGGGSGGGGSGGGGSEVQLVESGGGLVQPGGSLRLSCVASGSIVRINTMGWYRQTPGKQRELVADITSGGNINYIDAVKGRFTISRDNTKNTVYLQMNSLKPEDTAVYYCNAEIVVLVGVWTQRARTGNYWGQGTQVTVSS
# B3: CXCR20025 (bispecific antibody, not shown: small tags and cut ends)
# chain: EVQLVESGGGLVQAGGSLRLSCAASGRTFSDYAMGWFRQAPGKEREFVAAITWNGGRVFYTASVKGRFTISRDNAKNTMYLQMNSLKPEDTAVYYCAADKDRRTDYLGHPVAYWGQGTQVTVSSGGGGSGGGGSGGGGSGGGGSGGGGSGGGGSGGGGSEVQLVESGGGLVQAGESLRLSCAASGSTFDFKVMGWYRQPPGKQREGVAAIRLSGNMHYAESVKGRFTISKANAKNTVYLQMNSLRPEDTAVYYCKVNIRGQDYWGQGTQVTVSS
# B4: CXCR20017 (other, not shown: small tags and cut ends)
# chain: EVQLVESGGGLVQPGGSLRLSCVASGSIVRINTMGWYRQTPGKQRELVADITSGGNINYIDAVKGRFTISRDNTKNTVYLQMNSLKPEDTAVYYCNAEIVVLVGVWTQRARTGNYWGQGTQVTVSSGGGGSGGGGSGGGGSGGGGSGGGGSGGGGSGGGGSEVQLVESGGGLVQPGGSVRLSCVASGIIFRLSALGWTRQGPGKAREWVAGINSDGTTNYADPVKGRFTISRDNAKNTIYLHMDMLKPEDTAVYYCASGKYRGQGTQVTVSS
# B5: CXCR20016 (other, not shown: small tags and cut ends)
# chain: EVQLVESGGGLVQPGGSVRLSCVASGIIFRLSALGWTRQGPGKAREWVAGINSDGTTNYADPVKGRFTISRDNAKNTIYLHMDMLKPEDTAVYYCASGKYRGQGTQVTVSSGGGGSGGGGSGGGGSGGGGSGGGGSGGGGSGGGGSEVQLVESGGELVQPGGSLRLSCAASGSILTINAMGWYRQAPGKQRELVVRRTRGGSTTYQDSVKGRFTISADIAKKTMYLQMNSLKPEDTAVYYCMLDDRGGVYWGQGTQVTVSS
# B6: CXCR20027 (bispecific antibody, not shown: small tags and cut ends)
# chain: EVQLVESGGGLVQPGGSLRLSCVASGRIFSSNAMGWFRQAPGKEREFVAAITWRSGGSAYYADSAKGRFTISRDNAKNTVYLQMNSLKPEDTAVYYCAAGGSSWLSFPPDYWGQGTQVTVSSGGGGSGGGGSGGGGSGGGGSGGGGSGGGGSGGGGSEVQLVESGGGLVQAGGSLRLSCAASGRTFSDYAMGWFRQAPGKEREFVAAITWNGGRVFYTASVKGRFTISRDNAKNTMYLQMNSLKPEDTAVYYCAADKDRRTDYLGHPVAYWGQGTQVTVSS
# B7: CXCR20029 (other, not shown: small tags and cut ends)
# chain: EVQLVESGGGLVQPGGSLRLSCVASGRIFSSNAMGWFRQAPGKEREFVAAITWRSGGSAYYADSAKGRFTISRDNAKNTVYLQMNSLKPEDTAVYYCAAGGSSWLSFPPDYWGQGTQVTVSSGGGGSGGGGSGGGGSGGGGSGGGGSGGGGSGGGGSEVQLVESGGGLVQAGGSLTLSCAVSGSTFRINTMGWYRRAPGKQRELVAARDRGGYINYVDSVKGRFTVSRDNAKPTMYLQMNSLKPEDTAVYYCHAGTQDRTGRNFDRWGQGTQVTVSS
# B8: CXCR20015 (other, not shown: small tags and cut ends)
# chain: EVQLVESGGELVQPGGSLRLSCAASGSILTINAMGWYRQAPGKQRELVVRRTRGGSTTYQDSVKGRFTISADIAKKTMYLQMNSLKPEDTAVYYCMLDDRGGVYWGQGTQVTVSSGGGGSGGGGSGGGGSGGGGSGGGGSGGGGSGGGGSEVQLVESGGGLVQPGGSVRLSCVASGIIFRLSALGWTRQGPGKAREWVAGINSDGTTNYADPVKGRFTISRDNAKNTIYLHMDMLKPEDTAVYYCASGKYRGQGTQVTVSS
# B9: CXCR20032 (bispecific antibody, not shown: small tags and cut ends)
# chain: EVQLVESGGELVQPGGSLRLSCAASGSILTINAMGWYRQAPGKQRELVVRRTRGGSTTYQDSVKGRFTISADIAKKTMYLQMNSLKPEDTAVYYCMLDDRGGVYWGQGTQVTVSSGGGGSGGGGSGGGGSGGGGSGGGGSGGGGSGGGGSEVQLVESGGGLVQAGGSLRLSCAASGRTFSDYAMGWFRQAPGKEREFVAAITWNGGRVFYTASVKGRFTISRDNAKNTMYLQMNSLKPEDTAVYYCAADKDRRTDYLGHPVAYWGQGTQVTVSS
# B10: CXCR20031 (bispecific antibody, not shown: small tags and cut ends)
# chain: EVQLVESGGELVQPGGSLRLSCAASGSILTINAMGWYRQAPGKQRELVVRRTRGGSTTYQDSVKGRFTISADIAKKTMYLQMNSLKPEDTAVYYCMLDDRGGVYWGQGTQVTVSSGGGGSGGGGSGGGGSGGGGSGGGGSGGGGSGGGGSEVQLVESGGGLVQPGGSLRLSCVASGRIFSSNAMGWFRQAPGKEREFVAAITWRSGGSAYYADSAKGRFTISRDNAKNTVYLQMNSLKPEDTAVYYCAAGGSSWLSFPPDYWGQGTQVTVSS
# B11: CXCR20024 (VHH, not shown: small tags and cut ends)
# chain: EVQLVESGGGLVQPGGSLRLSCVASGRIFSSNAMGWFRQAPGKEREFVAAITWRSGGSAYYADSAKGRFTISRDNAKNTVYLQMNSLKPEDTAVYYCAAGGSSWLSFPPDYWGQGTQVTVSSGGGGSGGGGSGGGGSGGGGSGGGGSGGGGSGGGGSEVQLVESGGGLVQPGGSLRLSCVASGRIFSSNAMGWFRQAPGKEREFVAAITWRSGGSAYYADSAKGRFTISRDNAKNTVYLQMNSLKPEDTAVYYCAAGGSSWLSFPPDYWGQGTQVTVSS
# B12: CXCR20036 (other, not shown: small tags and cut ends)
# chain: EVQLVESGGGLVQAGGSLTLSCAVSGSTFRINTMGWYRRAPGKQRELVAARDRGGYINYVDSVKGRFTVSRDNAKPTMYLQMNSLKPEDTAVYYCHAGTQDRTGRNFDRWGQGTQVTVSSGGGGSGGGGSGGGGSGGGGSGGGGSGGGGSGGGGSEVQLVESGGGLVQAGGSLRLSCAASGRTFSDYAMGWFRQAPGKEREFVAAITWNGGRVFYTASVKGRFTISRDNAKNTMYLQMNSLKPEDTAVYYCAADKDRRTDYLGHPVAYWGQGTQVTVSS
# B13: CXCR20011 (VHH, not shown: small tags and cut ends)
# chain: EVQLVESGGGLVQPGGSLRLSCVASGSIVRINTMGWYRQTPGKQRELVADITSGGNINYIDAVKGRFTISRDNTKNTVYLQMNSLKPEDTAVYYCNAEIVVLVGVWTQRARTGNYWGQGTQVTVSSGGGGSGGGGSGGGGSGGGGSGGGGSGGGGSGGGGSEVQLVESGGGLVQPGGSLRLSCVASGSIVRINTMGWYRQTPGKQRELVADITSGGNINYIDAVKGRFTISRDNTKNTVYLQMNSLKPEDTAVYYCNAEIVVLVGVWTQRARTGNYWGQGTQVTVSS
# How the values were obtained:
# Test in all cases: cell-based or functional assay
# Human CXCR2 [1] = biological target: T1, Human CXCR2
# Cynomolgus CXCR2 = biological target: T2, Cynomolgus CXCR2
# Human CXCR2 [2] = biological target: T1, Human CXCR2; remark: listed apart in the source
"[35S]GTPγS % inhibition of max, ENA-78 (Human CXCR2 [1]) [%]","[35S]GTPγS % inhibition of max, GRO-α (Human CXCR2 [1]) [%]","[35S]GTPγS % inhibition of max, IL-8 (Human CXCR2 [1]) [%]","[35S]GTPγS accumulation IC50, ENA-78 (Human CXCR2 [1]) [nM]","[35S]GTPγS accumulation IC50, GRO-α (Human CXCR2 [1]) [nM]","[35S]GTPγS accumulation IC50, IL-8 (Human CXCR2 [1]) [nM]","FLIPR IC50, GRO-α induced intracellular calcium release (Cynomolgus CXCR2) [nM]","FLIPR IC50, GRO-α induced intracellular calcium release (Human CXCR2 [2]) [nM]",Binder
100,100,100,0.787,0.551,0.827,2.31,7.32,B1
,,,,,,29.2,2.93,B2
,100,,,0.891,,7.88,12.2,B3
,,,,,,1080,22.9,B4
,,,,,,1100,2.36,B5
,,,,,,12.7,17.8,B6
,,,,,,10.1,17.1,B7
,,,,,,2870,2.78,B8
100,,100,0.116,,0.997,3.65,14.7,B9
100,,100,1.38,,0.84,4.26,15.2,B10
,100,,,30.3,,11.8,26.4,B11
,,,,,,4.27,7.86,B12
,,,,,,,137,B13
